The text below walks through data of patent publication US20170233495A1 (CALYPSO BIOTECH, published 2017).

Assay [1] deals with T1, neutrophil-derived human NGAL/MMP9 complex (human, UniProt P80188 21-198). The assay can be described thus: cell-based or functional assay.
The target in assay [2] is T2, recombinant human proMMP9 (full length, latent form) (human, UniProt P14780 20-707). The assay can be described thus: cell-based or functional assay.
Assay [3] has as its target T3, neutrophil-derived human monomeric MMP9 (human, UniProt P14780 20-707). Put plainly: cell-based or functional assay.
For assay [4], the target named is T4, neutrophil-derived human dimeric MMP9 (human, UniProt P14780 20-707). Put plainly: cell-based or functional assay.
Assay [5] has as its target T1, neutrophil-derived human NGAL/MMP9 …. Put plainly: cell-based or functional assay. The source holds these as a separate data set.
Assay [6] concerns the target T3, neutrophil-derived human monomeric MMP9. Put plainly: cell-based or functional assay. This is another data set of the same source.
In assay [7] the target is T2, recombinant human proMMP9 (full length, …). Put plainly: SPR (BIAcore), antibody captured by anti-human Fc, antigen titrated 4.7-150 nM. On the procedure: (§1) In a second step, pro-MMP9 or MMP3-activated MMP9 were titrated from 4.7 to 150 nM in 2-fold dilutions.
The target in assay [8] is MMP3-activated recombinant human MMP9 (human, UniProt P14780 107-707). The assay is described as above. On the procedure:
as §1

Assay [9] deals with Cynomologus monkey (cyno) proMMP9 (Cynomologus monkey). The assay can be described thus: cell-based or functional assay.
The target of assay [10] is T2, recombinant human proMMP9 (full length, …). Put plainly: SPR (BIAcore), antibody captured by anti-human Fc, antigen titrated 4.7-150 nM; SPR (BIAcore), antibody captured by anti-human Fc, pro-MMP9 up to 150 nM; lower bound estimated from <1% binding. On the procedure: as §1
Assay [11] shares this target. The assay can be described thus: cell-based or functional assay. This is another data set of the same source.
In assay [12] the target is T5, human MMP9 (i.e. activated MMP9), catalytically active caspase-cleaved recombinant MMP9 (human, UniProt P14780 107-707). The assay can be described thus: cell-based or functional assay.
In assay [13] the target is T5, human MMP9 (i.e. activated MMP9), …. The assay can be described thus: cell-based or functional assay. This is another data set of the same source.
Assay [14] deals with T3, neutrophil-derived human monomeric MMP9. The assay can be described thus: cell-based or functional assay. This is another data set of the same source.
Assay [15] deals with T4, neutrophil-derived human dimeric MMP9. Put plainly: cell-based or functional assay. The source holds these as a separate data set.
The target is the same in assay [16]. The assay can be described thus: cell-based or functional assay. This is another data set of the same source.
The next assay deals with rat proMMP9 (rat, UniProt P50282 20-708). Put plainly: cell-based or functional assay.
In a further assay the target is mouse proMMP9 (mouse, UniProt P41245 20-730). The assay can be described thus: cell-based or functional assay.
The target in another assay is mouse active MMP9 (mouse, UniProt P41245 108-730, limits assumed). The assay can be described thus: cell-based or functional assay.

Like-named read-outs stand apart in the source and are kept apart here.

T5 sequence (P14780 107-707): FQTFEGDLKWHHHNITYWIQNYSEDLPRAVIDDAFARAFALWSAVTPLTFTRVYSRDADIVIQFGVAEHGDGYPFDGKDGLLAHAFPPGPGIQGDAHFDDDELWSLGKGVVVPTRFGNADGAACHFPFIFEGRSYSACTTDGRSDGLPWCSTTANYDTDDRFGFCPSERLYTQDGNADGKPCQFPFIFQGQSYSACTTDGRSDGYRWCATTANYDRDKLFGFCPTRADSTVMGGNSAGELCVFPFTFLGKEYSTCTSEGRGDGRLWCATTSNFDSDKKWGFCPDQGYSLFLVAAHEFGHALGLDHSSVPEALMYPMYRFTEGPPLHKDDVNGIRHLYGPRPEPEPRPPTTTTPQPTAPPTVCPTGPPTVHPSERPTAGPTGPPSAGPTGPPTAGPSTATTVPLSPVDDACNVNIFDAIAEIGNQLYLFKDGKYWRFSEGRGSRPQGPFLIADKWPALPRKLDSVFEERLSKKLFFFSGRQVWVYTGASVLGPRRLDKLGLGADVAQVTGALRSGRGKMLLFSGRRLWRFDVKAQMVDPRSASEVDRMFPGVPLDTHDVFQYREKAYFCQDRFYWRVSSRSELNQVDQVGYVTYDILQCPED
T4 sequence (P14780 20-707): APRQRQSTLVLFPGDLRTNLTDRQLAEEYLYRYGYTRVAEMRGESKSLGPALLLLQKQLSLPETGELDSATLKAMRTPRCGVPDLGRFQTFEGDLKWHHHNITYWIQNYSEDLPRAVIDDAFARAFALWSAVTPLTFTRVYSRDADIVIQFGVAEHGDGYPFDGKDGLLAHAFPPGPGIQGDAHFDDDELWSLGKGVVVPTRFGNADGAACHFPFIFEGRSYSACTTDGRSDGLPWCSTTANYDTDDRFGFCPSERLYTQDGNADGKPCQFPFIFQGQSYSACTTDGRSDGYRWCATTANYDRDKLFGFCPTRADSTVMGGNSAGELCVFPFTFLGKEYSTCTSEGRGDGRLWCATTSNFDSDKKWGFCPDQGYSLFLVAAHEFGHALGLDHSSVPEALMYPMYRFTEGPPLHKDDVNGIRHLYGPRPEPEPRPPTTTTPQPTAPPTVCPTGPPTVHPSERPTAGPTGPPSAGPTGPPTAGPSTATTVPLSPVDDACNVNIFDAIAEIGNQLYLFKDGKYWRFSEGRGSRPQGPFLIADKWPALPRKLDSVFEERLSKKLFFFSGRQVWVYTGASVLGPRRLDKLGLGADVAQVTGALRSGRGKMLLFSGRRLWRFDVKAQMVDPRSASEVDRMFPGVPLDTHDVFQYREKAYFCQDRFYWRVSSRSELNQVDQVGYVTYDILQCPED
T2 sequence (P14780 20-707): as above
T1 sequence (chain, as listed by the source limits assumed, chain 1 of 2): as the sequence (P14780 20-707) above
T1 sequence (P80188 21-198 limits assumed, chain 2 of 2): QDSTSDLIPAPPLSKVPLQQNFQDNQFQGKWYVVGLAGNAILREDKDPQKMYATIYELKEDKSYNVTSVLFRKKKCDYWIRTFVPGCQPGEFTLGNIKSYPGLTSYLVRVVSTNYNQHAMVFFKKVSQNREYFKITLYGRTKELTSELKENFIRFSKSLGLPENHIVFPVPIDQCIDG
T3 sequence (P14780 20-707): as the sequence (P14780 20-707) above
Sequence of mouse proMMP9 (P41245 20-730): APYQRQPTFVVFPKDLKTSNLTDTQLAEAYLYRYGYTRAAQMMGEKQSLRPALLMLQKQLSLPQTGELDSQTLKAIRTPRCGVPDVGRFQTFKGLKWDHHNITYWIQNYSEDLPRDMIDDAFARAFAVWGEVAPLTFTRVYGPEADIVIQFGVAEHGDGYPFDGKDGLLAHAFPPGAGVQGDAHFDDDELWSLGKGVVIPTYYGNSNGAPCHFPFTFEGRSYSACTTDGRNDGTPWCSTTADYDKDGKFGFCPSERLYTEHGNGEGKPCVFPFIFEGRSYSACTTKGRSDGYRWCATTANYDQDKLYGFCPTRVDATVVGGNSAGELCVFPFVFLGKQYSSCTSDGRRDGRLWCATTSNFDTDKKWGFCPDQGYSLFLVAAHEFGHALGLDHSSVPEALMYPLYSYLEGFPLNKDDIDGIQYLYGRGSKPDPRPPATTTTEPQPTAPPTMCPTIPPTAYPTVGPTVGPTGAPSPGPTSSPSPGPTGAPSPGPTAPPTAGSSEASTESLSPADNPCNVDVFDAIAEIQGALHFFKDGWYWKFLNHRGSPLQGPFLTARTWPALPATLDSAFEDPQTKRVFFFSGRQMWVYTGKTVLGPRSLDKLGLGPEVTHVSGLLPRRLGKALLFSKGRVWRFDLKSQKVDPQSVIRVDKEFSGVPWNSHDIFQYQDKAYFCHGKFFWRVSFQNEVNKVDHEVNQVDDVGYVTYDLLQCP
Sequence of mouse active MMP9 (P41245 108-730 limits assumed): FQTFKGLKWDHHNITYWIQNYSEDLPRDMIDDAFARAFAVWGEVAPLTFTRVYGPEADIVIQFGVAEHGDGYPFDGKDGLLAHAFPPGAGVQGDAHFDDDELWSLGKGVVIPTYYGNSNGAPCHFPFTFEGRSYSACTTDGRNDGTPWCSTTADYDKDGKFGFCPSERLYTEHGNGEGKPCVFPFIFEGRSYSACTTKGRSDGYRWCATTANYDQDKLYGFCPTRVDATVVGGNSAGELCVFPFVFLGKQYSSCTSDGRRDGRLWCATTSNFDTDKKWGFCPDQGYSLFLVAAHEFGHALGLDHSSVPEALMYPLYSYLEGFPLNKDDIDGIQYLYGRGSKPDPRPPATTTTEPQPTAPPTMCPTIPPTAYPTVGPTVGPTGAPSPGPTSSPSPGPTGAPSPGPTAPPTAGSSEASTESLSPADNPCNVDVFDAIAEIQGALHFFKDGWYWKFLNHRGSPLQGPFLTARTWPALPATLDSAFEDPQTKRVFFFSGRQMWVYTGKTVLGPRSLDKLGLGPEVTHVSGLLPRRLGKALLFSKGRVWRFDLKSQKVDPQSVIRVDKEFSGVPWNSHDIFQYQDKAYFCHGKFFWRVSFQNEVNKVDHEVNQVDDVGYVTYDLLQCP
Sequence of MMP3-activated recombinant human MMP9 (P14780 107-707): as the sequence (P14780 107-707) above
Sequence of rat proMMP9 (P50282 20-708): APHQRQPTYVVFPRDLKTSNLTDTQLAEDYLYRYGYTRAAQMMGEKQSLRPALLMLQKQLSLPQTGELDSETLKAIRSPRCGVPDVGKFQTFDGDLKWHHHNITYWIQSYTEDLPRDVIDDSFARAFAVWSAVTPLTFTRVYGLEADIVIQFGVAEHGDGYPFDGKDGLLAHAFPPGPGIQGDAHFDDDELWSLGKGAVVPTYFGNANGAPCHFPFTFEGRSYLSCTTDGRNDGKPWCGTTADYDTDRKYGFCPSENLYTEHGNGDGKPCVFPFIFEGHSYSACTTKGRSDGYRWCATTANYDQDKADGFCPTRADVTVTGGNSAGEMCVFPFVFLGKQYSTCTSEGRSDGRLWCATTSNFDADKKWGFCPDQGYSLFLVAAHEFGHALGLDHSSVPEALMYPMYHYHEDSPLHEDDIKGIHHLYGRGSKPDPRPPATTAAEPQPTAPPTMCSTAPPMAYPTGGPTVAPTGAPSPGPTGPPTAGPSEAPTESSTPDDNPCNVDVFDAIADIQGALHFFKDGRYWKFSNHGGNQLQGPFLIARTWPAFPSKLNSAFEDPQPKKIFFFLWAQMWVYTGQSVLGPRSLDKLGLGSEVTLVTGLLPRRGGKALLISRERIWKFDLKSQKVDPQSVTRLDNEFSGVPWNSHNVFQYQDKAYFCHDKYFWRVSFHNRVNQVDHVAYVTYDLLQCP

B1: comparative antibody 1 (antibody known as AB0041) (antibody, human IgG4 S228P, kappa, V domains shown)
VH: QVQLKESGPGLVAPSQSLSITCTVSGFSLLSYGVHWVRQPPGKGLEWLGVIWTGGTTNYNSALMSRLSISKDDSKSQVFLKMNSLQTDDTAIYYCARYYYGMDYWGQGTSVTVSS
VL: DIVMTQSHKFMSTSVGDRVSITCKASQDVRNTVAWYQQKTGQSPKLLIYSSSYRNTGVPDRFTGSGSGTDFTFTISSVQAEDLAVYFCQQHYITPYTFGGGTKLEIKR
notes: also called anti-MMP9 comparative antibody 1
With B1, the “efficacy of inhibition, MMP3/MMP9 assay with neutrophil-derived MMP9” value in assay [1], in assay [3] and in assay [4] was 25% in each case. Also, the “IC50, DQ-gelatin digestion, MMP3/MMP9 assay” value in [2] is 0.2 nM. For the same molecule, the “IC50 (read off the curve)” value in assay [5] and in assay [6] was approximately 1 nM in each case. The Kd in [7] worked out at 0.9 nM; in [8] it was 5 nM.

B2: F20-VH-GL1-V4-V9/B08-VL-GL6c (antibody, human IgG4 S228P, V domains shown)
VH: EVQLVESGGGLVQPGRSLRLSCAASGFTFNDYPMHWVRQAPGKGLEWVSGISSRSGSVGYAESVKGRFTISRDNAKNSLYLQMNSLRAEDTALYYCARDKIYYGSGSYDFYYYYGMDVWGQGTTVTVSS
VL: QSALTQPASVSGSPGQSITISCTGTSNDVGAYNRVSWYQQHPGKAPKLMIYGVSNRPSGVSNRFSGSKSGNTASLTISGLQAEDEADFYCTSYSSSTTSYVVFGGGTKVTVL
notes: The light chain constant region is not tied to it; also called F20-VH/B08-VLc variant; F20-VH/B08-VLc
Regarding B2, the “Efficacy, MMP3/MMP9 gelatin assay” value (in [9]; with rat proMMP9; with mouse proMMP9) was 100% in each case. Also, the “IC50 (nM), MMP3/MMP9 gelatin assay” value in assay [9] amounted to 5.86 nM; with rat proMMP9 it was 3.16 nM; with mouse proMMP9, 7.8 nM. The Kd in [10] is more than 15000 nM; in [8] it was 11.7 nM. Moreover, the “Efficacy, DQ-gelatin digestion, MMP3/MMP9 assay” value in assay [11] was found to be 100%. In assay [11], the “IC50 (nM), DQ-gelatin digestion, MMP3/MMP9 assay” value turned out to be 9.52 nM. For the same molecule, the “Efficacy, DQ-gelatin digestion, MMP9 assay” value in [12] amounted to 100%. In addition, in assay [12], the “IC50 (nM), DQ-gelatin digestion, MMP9 assay” value came out at 0.97 nM. Also, the “efficacy of inhibition, MMP3/MMP9 assay with neutrophil-derived MMP9” value in [1], in assay [3] and in assay [4] was 100% throughout. For the same molecule, the “efficacy of neutralisation, APMA-activated neutrophil-derived MMP9, OmniMMP RED cleavage” value in [1], in [3] and in assay [4] was 100% each time. In assay [13], the “IC50, DQ-gelatin digestion, MMP9 assay with highly purified activated MMP9” value is 2.6 nM. Also, the “IC50 (read off the curve)” value was approximately 10 nM in assay [14]; approximately 10 nM in assay [15]; approximately 2 nM in assay [5]; approximately 2 nM in assay [6]; approximately 0.5 nM in assay [16]. In addition, the “Efficacy, MMP9 gelatin assay” value with mouse active MMP9 came out at 100%. Moreover, in the assay with mouse active MMP9, the “IC50 (nM), MMP9 gelatin assay” value was 1.27 nM.
